Results: the supplement of paper PMC12636428

Tested on: Saccharomyces cerevisiae
Assay: transcriptional activation domain activity (GFP:mCherry ratio, weighted mean of sorted bins, harmonized to initial dataset scale) (arbitrary fluorescence ratio units); higher = stronger transcriptional activation
Settings: beta-estradiol 1 µM; induction time 4 h
Method in brief: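 The listed activation activity is a read-weighted mean of bin median fluorescence, averaged across barcodes and linearly mapped onto the initial dataset scale. Barcoded tiles, fused to an estradiol-inducible synthetic transcription factor, were integrated at URA3 in yeast diploids bearing a GFP reporter. Cells were held 4 hours at 30 °C in SC with 1 uM beta-estradiol, sorted into 8 GFP:mCherry bins, and sequenced, and tiles with fewer than 50 reads were excluded.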

FSLGLRTPLDHLLLAFFVLCGLTRLARFNVTVAMLPKDATGKSQYFEGTPIPT
transcriptional activation domain activity: 73300

EGLGTAWLFKKEDLLCKSAYEIATISNSWLCGVQGTLLMYLVLVLLCLSFFLI
transcriptional activation domain activity: 30800

LEMLSYGAGVHHAINILFTDGIFWVWYYDRQGILQSKGVSIFKDLPRFLLLLF
transcriptional activation domain activity: 52200

MFCLRSWLPLLFIPTNASPVFIFLFFVCTYFLNRPCVYCSFLLLILFMTSCNW
transcriptional activation domain activity: 62500

MIRPFSIYSITLDVFPWLLNLFFLFFFLILFPLLRNFLFCVVSLIQNIQPLCF
transcriptional activation domain activity: 30400

DMDEEEGGAPAKPVGACARCKNLKVKCEFKTETDPCKRCFNGRHDCVTPGRKK
transcriptional activation domain activity: 28500

MNLILRCIWRVTKTIPRLIQTKSIKPDILLYDIHKFFVTVPPREWKRRATEFP
transcriptional activation domain activity: 55900

ARGTTTPPPAPSTGSPSAPAAASRSSTGRSSATASCRTARCARASGRSAPGAG
transcriptional activation domain activity: 42900

SLPPPRFSPMFSFSLMSYLRCFDYYVCFFFSLFCFFSPALLVEGVVTFFSFIH
transcriptional activation domain activity: 60100

DYLWADMDSFFPFVRLLPTPVQEIWDMTFDIALLPLMECPPPEEWTLFDTYAY
transcriptional activation domain activity: 52400

EVMKITPVQKQTRAGQRTRFKAFVAIGDSNGHVGLGVKCAKEVASAIRGAIIL
transcriptional activation domain activity: 61100

VRSLTLEIYFNWLQIIFDSKLQDEFSKLLNYNLITKVDLIINLLESIALRFSD
transcriptional activation domain activity: 51000

PDELVKSASRLEIDDPSPVTADGAKKSKNQLKKEQKARQLQLQRSLGPASGAP
transcriptional activation domain activity: < 6570

ITMCSVTSVGYLGIVRWLVICLGFQPYKLRCVTLVYLTHVMTFFCIIILGIFN
transcriptional activation domain activity: 68800

MGLWARFICFVIVCLQITSLYCLFSCSPSFLYFKKIQPLFFTFFFFLLSLFPS
transcriptional activation domain activity: 52400

ALLCLCWAPEPRGLLALGIGCLVFLFLYFYPCCFFFFFFYSYLCFCTVVLFFP
transcriptional activation domain activity: 53300

FAALRRGLLLIMLFALWDVRLLSELSFTNFVFPPAMFRVIAAQSPSLRAVKVS
transcriptional activation domain activity: 45300

MSSGFSWSTCSFFFFFFFFLLLLLLLFFWFFLFGLSWRDSLVFFPFFFFLSLF
transcriptional activation domain activity: 17800

MIKKISFFLYIFALRSSFFLFLFVLYFFFPLFFFFFFSFSFFFLLLVSVATLE
transcriptional activation domain activity: 12200

PINAAISNLMLGMLLFCGSLYTLVTFLPIFHSNCPYYTPLSSPWWRILRALGV
transcriptional activation domain activity: 46000

FSDGELSDDALDKQGKKEKKRKAKAIESGDATPVESKPEKERKKKKSKPEAET
transcriptional activation domain activity: 31100

YVILVAVSIFTTTYVMLTSLPVLFQQCPFQTPLSSIIWYLGHFLVIAFLSLFS
transcriptional activation domain activity: 62600

TLPGGTTGEFGRDRPTTNAFGSSTGAFGAPAANNNPFGAPAQPAGAFGQPSAL
transcriptional activation domain activity: 44800

GQRPFGQVLNFFSCFLFIAFSCCHGPSLVNLIVWAAFFAQSTLFLIYLLRCIC
transcriptional activation domain activity: 43800

YYGMYPQDISTLGVSPRTPTSRLIRSYMKTILSNPESRKIFYFLMLNMCYMLV
transcriptional activation domain activity: 58900

REGEGRGERGREGAGRERGGGKGVGGGEGGGERTIRLKGRKGDSNETTRRKEE
transcriptional activation domain activity: 31700

CDTVAHSAGRRERGRKQAGKRNDKERREGEERGKTGKTKRRGVARAGTGASAS
transcriptional activation domain activity: 14800

SSEYEIGRPSEEEVTMTRMLDKVLRRSDAVDKESLCILAGQRVWHLRLTLHCL
transcriptional activation domain activity: 45500

VNSHGYKHISNLDELDDLLSLTYSDNNLLSASNNSDFNNSNNGIINTADTQNS
transcriptional activation domain activity: 106000

WSHPLRMTYFLVLVFFSCTWVGGVLRRGWGYLVLNAFCRHSYICGVCCIHYLS
transcriptional activation domain activity: 18800

MVLVLLWTVEPFIFLFNLLLLILLMVWLPLILLFKLLFLNNITFLSFMIPNQL
transcriptional activation domain activity: 45000

LVGALGPPGGLYSSSAGDTQERRRRREGERALKGFEVGDKWAGEVARRLRRTA
transcriptional activation domain activity: 60100

SPVYLICMGTVLLYVGVIIVMLIERIAYFRPGDGLCVIGLKPVASLSLLCFDL
transcriptional activation domain activity: 37200

KSKKRKTGEQSDEDAVAAKKRKKSAGKKVAGEEKPKKARKSQAPAEAAGGRKS
transcriptional activation domain activity: 16500

RCQAVTVSDEVYSKLRCSSGHSGSGLLFMLIWIRIWKTLVIAYSGFSWREYLY
transcriptional activation domain activity: 88100

TEAPKEEAAPAPVEEAPKQEEAPADAPAEEAAPAAAEEAPKETAAASPPKRGI
transcriptional activation domain activity: 47800

PQCYNNWKSLLLLQRYLYFVLPPFPVHFLPIFKILCTYIQLLIWFATISLASL
transcriptional activation domain activity: 40700

LSLWSHTCRHYCSVIRCKHICMILCHIRANNSLIGMIGILLVLNCTILPSNRV
transcriptional activation domain activity: 69900

ERKRKREMAGEDDGRAEAKKVKKEKKEGEKEREKKGKKERKGKKEKEKRKKDM
transcriptional activation domain activity: 16800

MGSGDTFFYWKLFSFSLSLLTRFSPLYFGWPFLKTIPLFMYFFLCRVLPLFLM
transcriptional activation domain activity: 53400

MFKCRNRYCYGSCVDLLCYLILGLDFLWIFCFLFFKRFFFRFLLSIPFSFFPS
transcriptional activation domain activity: 64600

MSNWLWIFLLLFFAFFCRSFTSCFIRLSVHIYTHCCMCSLGGLLVYLARSLFF
transcriptional activation domain activity: 44200

HAQPRAGDSTRPQESASSSDRPADASGEGGGISKKKKAKRSAAKEEGAGAEDP
transcriptional activation domain activity: 37300

MMLVGVVAFNVLKVIPVSDPRCIGVLLVGYVFQGLGFFMTFFYLAIYILRIMT
transcriptional activation domain activity: 43600

MSFFFFFIRYFPWLFDFWLLAFVFYCLLIPRLNIFFLSFSCFNFLVFSLLLVG
transcriptional activation domain activity: 56000

PPYVVAPPVVCPYSPLIILFYMVTYFFLHCFRGLMGWLQFLALLLQSLMVGIP
transcriptional activation domain activity: 28900

VALTFYFLFLLFLILLRLGLISCFVFFNFWYIYHFFYLSINLSIFFISFHSFI
transcriptional activation domain activity: 78300

RAAVTLCSFFCFFFSWTYSSLFLLSFFIWTGFGRSYGVFFFFFFFFFFFFGGF
transcriptional activation domain activity: 19400

LNVQLVYLIHSVLSIVIDFTFKRVEGDMDEWVVSGFSDRFERRITFARLYCNK
transcriptional activation domain activity: 49000

ELGFVEIVQVSPRFGILLLCMTLSMISIIVDLLSVTPVIPIGVINPFWKFAFV
transcriptional activation domain activity: 39800

LCTQLLVKILVFSAYRFSLTVLNLVSYLTIDARMVSIVVLGKSLFPLLVFVLL
transcriptional activation domain activity: 41000

MPFGRRSAFGVFFIYHFFFVLHLIFTGFQSIFVYIGLSKLFFFWFGPFFFLFP
transcriptional activation domain activity: 61800

SLQLLYFMPVRYYTYHKRGYHYFLADLCYFVNVLLLLSIWIFPNSRRLMISTY
transcriptional activation domain activity: 65100

TSRAPPSASPPTASHGAPTPPPPSPSSSPAPATPSSHPCPPTSSSSRPPSSPP
transcriptional activation domain activity: 41800

LSSYLLKNALDVFCKYLPHVSKPVETVFKVKRKYSWMVLFLLYCILTHTNYHC
transcriptional activation domain activity: 26800

EDRHSSKRRRERSRSPVRDTRRRSRSPAARGKNDEDRRDRRRSSSRERDRRRG
transcriptional activation domain activity: 32600

GDDEETQGNATKNILDDWEGAPESFVCQEQRQTGGRVAAKTQRLLSFSIHDEL
transcriptional activation domain activity: 23100

LLRSRAYDDPAVFRIISALFQVPMRHKKNSVRGLLCVVWRVITWVYFQPRLPW
transcriptional activation domain activity: 54600

RDVYYILHWVVAFTLVRATVMYKMLEPFIKWYGVRSQHKIMRFGEQGWLTIYY
transcriptional activation domain activity: 59800

SVEVEMEDAPKPKRRGRPPGSGKKKAPAGEDAAAAAPEKKKRTPAKKASAGSA
transcriptional activation domain activity: 42700

YNLVLSHNLVLSHLWHHYYVQHLHGLLRSFSSINLPFLLHLPLSLLLLHWVTW
transcriptional activation domain activity: 55700

KGKGRRRGRGRGRGRGRGREGKGKGREGEGKGKGKEKGKGKGKGKGKGKGKGR
transcriptional activation domain activity: 28000

LFINRLMWLVRSYLTTFFCKSCPGLAKKLIKYVTIQQLPPDVSWDPHFKPRYN
transcriptional activation domain activity: 67600

RRRRRHEEGGRGGDRSRGRDGERSSTRHEERRHRSRDRRDDRDRDRGSERRGH
transcriptional activation domain activity: 44500

YLSFLGIGVTFYTFLLLFFFLEDLEDFLVFFEGVLMIFLKLFIVFWTSLLVFL
transcriptional activation domain activity: 62000

MLFFFLYIFLCGCFPFWNMSIFFSVIPPFFSFLPLMLLFFFFFGMFGQRINIF
transcriptional activation domain activity: 36300

MHCVLALSLGLLSRVIVFYGCSFRGKLHFMMFWEALYLLLIFMRMLWLLFFIT
transcriptional activation domain activity: 51000

MGFSIDRAIELIWNLLYFFFLSSFLHIFLGLSWDMIICWNYFLSLFILLVFSS
transcriptional activation domain activity: 62600

KADEPAVEENGAKEDDSAKKQKTNGETETEKKGKGRGRPKKADGEKKAPAKKR
transcriptional activation domain activity: 21400

IRDRFNHGPCKVYILFMNCTYLPMIPGLFRIIEILRYYLRLRWLRCCSAAGPD
transcriptional activation domain activity: 60300

EWFVMFCMMLLLLFWFFPISALASLLSYEEIKKIMPWLGRLIDANENIRAIVQ
transcriptional activation domain activity: 62900

MAWAYGSCLCRCCFFFASLWQFLFFVFGFLPFWPFFGFLLFISVVLPPSSLFL
transcriptional activation domain activity: 46100

AATTAEPERKKSSKDRKSPEIVSEAKKSKDSPGEVKRSSSKREKEKEKEKSSS
transcriptional activation domain activity: 37300

HPLIDVSEEAFIQLAYLAVALAKHLCILTRVTYYQNVKGLSSSHFMYLFYICL
transcriptional activation domain activity: 40200

RQSTSRRSDPGPVSRVTELARSDQDTTTTKLVSRLRATAQIRVQVVLAIVFRH
transcriptional activation domain activity: 53200

MRVGVGGLLWLLCGSPFFFLHFISFVFLFFWSLLFFLFCRALHTPFSSYYNYH
transcriptional activation domain activity: 72000

TDRGGRRGKDYDPADRRHRRRGSSSSSDDRRRSRSRSKSRTRKAAETAAVAGV
transcriptional activation domain activity: 59200

NCTNLPSVVVVGGSVPIDSQGLQIWSLLIYSIVLVPGLNLVVSSLIFLGIFWL
transcriptional activation domain activity: 30000

AINFWFFLTVYYGFYNLVGLLWITKIFNMYSLNWWPPQLGFPPTFTFFSCFPL
transcriptional activation domain activity: 51500

DAPAQPEPADDGEEAEEVDEPKGKKGKGGGKKGGGKGKGGKGKEKKADKAAAE
transcriptional activation domain activity: 29400

PAADKSDAPRKPVSISIGGGAKKAEEAKPEPAKAASEGPAPAGGVAAVKAAAA
transcriptional activation domain activity: 39300

YVGKYPESIDTFSIVPRTPTSRLIRSYLKTILANPESRKIFYFLMLNLAYMLV
transcriptional activation domain activity: 58300

SSVVLFVFFLLFLLFSLFFYPTWLLPCLIFLLNDYLLFFLLFFCRVSCSFAPL
transcriptional activation domain activity: 45800
